The values that follow come from US20180185504A1.

Assay [1] has as its target human prolactin (PRL) (human) (UniProt P01236). Description: ELISA: dimeric PRLR (3.38 pM to 200 nM) on plate-coated human PRL (1 µg/mL), HRP anti-Fc-gamma detection.
Assay [2] has as its target mouse PRLR construct with an HA tag on HEK293/mPRLR cells (mouse) (UniProt Q08501). Description: FACS on HEK293/mPRLR cells.

Sequence of human prolactin (PRL) (human) (P01236 29-227 limits assumed): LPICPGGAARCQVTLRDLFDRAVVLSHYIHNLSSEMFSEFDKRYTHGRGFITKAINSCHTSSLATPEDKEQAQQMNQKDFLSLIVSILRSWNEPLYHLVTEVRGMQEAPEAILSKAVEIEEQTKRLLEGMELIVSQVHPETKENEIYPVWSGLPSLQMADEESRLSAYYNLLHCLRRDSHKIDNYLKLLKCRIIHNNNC
Sequence of mouse PRLR construct with an HA tag on HEK293/mPRLR cells (mouse) (Q08501 20-608): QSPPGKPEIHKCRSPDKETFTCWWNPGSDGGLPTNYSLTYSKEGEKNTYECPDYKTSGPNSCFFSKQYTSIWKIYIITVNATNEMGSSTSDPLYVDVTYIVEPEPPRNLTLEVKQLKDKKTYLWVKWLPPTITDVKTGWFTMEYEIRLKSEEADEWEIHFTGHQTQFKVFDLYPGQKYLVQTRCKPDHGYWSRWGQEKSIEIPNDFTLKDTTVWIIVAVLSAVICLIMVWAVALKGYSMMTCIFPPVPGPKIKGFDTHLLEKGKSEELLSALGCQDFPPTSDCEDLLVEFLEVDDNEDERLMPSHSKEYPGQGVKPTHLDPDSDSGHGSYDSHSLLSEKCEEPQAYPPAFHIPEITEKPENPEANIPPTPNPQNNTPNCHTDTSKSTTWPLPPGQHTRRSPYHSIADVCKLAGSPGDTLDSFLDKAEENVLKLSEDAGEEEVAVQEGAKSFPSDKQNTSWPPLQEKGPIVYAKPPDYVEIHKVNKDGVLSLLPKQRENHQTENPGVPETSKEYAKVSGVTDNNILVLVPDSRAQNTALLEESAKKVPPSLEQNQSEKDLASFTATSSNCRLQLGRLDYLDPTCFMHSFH

B1: dimeric form of human PRLR (Example 12 ELISA) (Fc fusion, part only; not given: Dimerising Fc part, part only)
chain, part: QLPPGKPEIFKCRSPNKETFTCWWRPGTDGGLPTNYSLTYHREGETLMHECPDYITGGPNSCHFGKQYTSMWRTYIMMVNATNQMGSSFSDELYVDVTYIVQPDPPLELAVEVKQPEDRKPYLWIKWSPPTLIDLKTGWFTLLYEIRLKPEKAAEWEIHFAGQQTEFKILSLHPGQKYLVQVRCKPDHGYWSAWSPATFIQIPSDFTMND
With B1, in assay [1], the concentration giving a half-maximal response (EC50) turned out to be 4.9 nM.

B2: H1H6801P (antibody, human IgG1, V domains shown)
VH: QVQLQQSGPGLVKPSQTLSLTCVISGDSVSSNTAWNWVRQSPSRGLEWLGRTYYRSKWYNDYAVSVKSRITINPDTSKNQFSLLMNSVTPEDTAVYYCARVVRGLNYFDYWGQGTLVTVSS
VL: DIVMTQSPDSLAVSLGERATINCKSSQSVLYNSNNKNYLAWYQQKPGQPPKLLIYWSSSRESGVPDRFSGSGSGTDFTLTISGLQAEDVAIYYCQQYSTIPYTFGQGTKLEIK
In assay [2], B2 came in with an FACS Cell Binding (Fold Above Background) of 56 fold.

For orientation: EC50 means the concentration needed to bring the measured effect to its halfway point. A higher EC50 goes with weaker potency.
